Patent US20180086804A1 (COMMISSARIAT A L ENERGIE ATOMIQUE ET AUX ENERGIES …, published 2018)
Where two headings read alike, the source gives them in different places. No end group written: not given here.

Experiments:
HLA-DR4 (HLA-DRB1*04:01) [1] = target: T1, HLA-DR4 (HLA-DRB1*04:01) (human); assay: competition ELISA vs biotin-HA 306-318;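 also: HLA and competitor incubated 24 to 72 h, maximal signal taken from wells lacking competitor, background from wells lacking HLA molecule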
T1 construct: mature; purified from homozygous EBV-transformed lymphoblastoid cells with antibody L243

[2] = target: T2, HLA-DRB5 (HLA-DRB5*01:01) (human); assay: competition ELISA vs biotin-HA 306-318;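 also: HLA and competitor incubated 24 to 72 h, maximal signal taken from wells lacking competitor, background from wells lacking HLA molecule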
T2 construct: mature; purified from homozygous EBV-transformed lymphoblastoid cells with antibody L243

HLA-DR1 (HLA-DRB1*01:01) [3] = target: T3, HLA-DR1 (HLA-DRB1*01:01) (human); assay: competition ELISA vs biotin-HA 306-318;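 also: HLA and competitor incubated 24 to 72 h, maximal signal taken from wells lacking competitor, background from wells lacking HLA molecule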
T3 construct: mature; class II HLA molecule purified from homozygous EBV-transformed lymphoblastoid cells with antibody L243

[4] = target: T4, HLA-DR11 (HLA-DRB1*11:01) (human); assay: competition ELISA vs biotin-HA 306-318;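 also: HLA and competitor incubated 24 to 72 h, maximal signal taken from wells lacking competitor, background from wells lacking HLA molecule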
T4 construct: mature; purified from homozygous EBV-transformed lymphoblastoid cells with antibody L243

HLA-DR3 (HLA-DRB1*03:01) [5] = target: T5, HLA-DR3 (HLA-DRB1*03:01) (human); assay: competition ELISA vs biotin-MT 2-16
T5 construct: mature; purified from homozygous EBV-transformed lymphoblastoid cells with antibody L243

[6] = target: T6, HLA-DR15 (HLA-DRB1*15:01) (human); assay: competition ELISA vs biotin-A3 152-166
T6 construct: mature; purified from homozygous EBV-transformed lymphoblastoid cells with antibody L243

[7] = target: T7, HLA-DP401 (HLA-DPB1*04:01) (human, UniProt P20036 29-222); assay: competition ELISA vs biotin-Oxy 271-287
T7 construct: mature; purified from homozygous EBV-transformed lymphoblastoid cells with antibody B7/21

[8] = target: T8, HLA-DP402 (HLA-DPB1*04:02) (human, UniProt P20036 29-222); assay: competition ELISA vs biotin-Oxy 271-287
T8 construct: mature; purified from homozygous EBV-transformed lymphoblastoid cells with antibody B7/21

[9] = target: T9, HLA-DR13 (HLA-DRB1*13:01) (human); assay: competition ELISA vs biotin-B1 21-36
T9 construct: mature; purified from homozygous EBV-transformed lymphoblastoid cells with antibody L243

[10] = target: T9, HLA-DR13 (HLA-DRB1*13:01); assay: competition ELISA vs biotin-B1 21-36; remark: listed apart in the source
[11] = target: T2, HLA-DRB5 (HLA-DRB5*01:01); assay: competition ELISA vs biotin-HA 306-318; remark: listed apart in the source
HLA-DR1 (HLA-DRB1*01:01) [12] = target: T3, HLA-DR1 (HLA-DRB1*01:01); assay: competition ELISA vs biotin-HA 306-318; remark: listed apart in the source
[13] = target: T4, HLA-DR11 (HLA-DRB1*11:01); assay: competition ELISA vs biotin-HA 306-318; remark: listed apart in the source
HLA-DR7 (HLA-DRB1*07:01) [14] = target: T10, HLA-DR7 (HLA-DRB1*07:01) (human); assay: competition ELISA vs biotin-YKL
T10 construct: mature; purified from homozygous EBV-transformed lymphoblastoid cells with antibody L243

[15] = target: T6, HLA-DR15 (HLA-DRB1*15:01); assay: competition ELISA vs biotin-A3 152-166; remark: listed apart in the source
HLA-DR4 (HLA-DRB1*04:01) [16] = target: T1, HLA-DR4 (HLA-DRB1*04:01); assay: competition ELISA vs biotin-HA 306-318; remark: listed apart in the source
HLA-DR3 (HLA-DRB1*03:01) [17] = target: T5, HLA-DR3 (HLA-DRB1*03:01); assay: competition ELISA vs biotin-MT 2-16; remark: listed apart in the source
[18] = target: T11, HLA-DRB4 (HLA-DRB4*01:01) (human); assay: competition ELISA vs biotin-E2/E168
T11 construct: mature; purified from homozygous EBV-transformed lymphoblastoid cells with antibody L243

HLA-DR7 (HLA-DRB1*07:01) [19] = target: T10, HLA-DR7 (HLA-DRB1*07:01); assay: competition ELISA vs biotin-YKL; remark: listed apart in the source
[20] = target: T6, HLA-DR15 (HLA-DRB1*15:01); assay: competition ELISA vs biotin-A3 152-166; remark: listed apart in the source
[21] = target: T11, HLA-DRB4 (HLA-DRB4*01:01); assay: competition ELISA vs biotin-E2/E168; remark: listed apart in the source
HLA-DR3 (HLA-DRB1*03:01) [22] = target: T5, HLA-DR3 (HLA-DRB1*03:01); assay: competition ELISA vs biotin-MT 2-16; remark: listed apart in the source
HLA-DR4 (HLA-DRB1*04:01) [23] = target: T1, HLA-DR4 (HLA-DRB1*04:01); assay: competition ELISA vs biotin-HA 306-318; remark: listed apart in the source
[24] = target: T2, HLA-DRB5 (HLA-DRB5*01:01); assay: competition ELISA vs biotin-HA 306-318; remark: listed apart in the source
HLA-DR1 (HLA-DRB1*01:01) [25] = target: T3, HLA-DR1 (HLA-DRB1*01:01); assay: competition ELISA vs biotin-HA 306-318; remark: listed apart in the source
[26] = target: T4, HLA-DR11 (HLA-DRB1*11:01); assay: competition ELISA vs biotin-HA 306-318; remark: listed apart in the source
HLA-DR7 (HLA-DRB1*07:01) [27] = target: T10, HLA-DR7 (HLA-DRB1*07:01); assay: competition ELISA vs biotin-YKL; remark: listed apart in the source
[28] = target: T12, HLA-DRB3 (HLA-DRB3*01:01) (human); assay: competition ELISA vs biotin-LOL 191-210
T12 construct: mature; purified from homozygous EBV-transformed lymphoblastoid cells with antibody L243

[29] = target: T7, HLA-DP401 (HLA-DPB1*04:01); assay: competition ELISA vs biotin-Oxy 271-287; remark: listed apart in the source
[30] = target: T8, HLA-DP402 (HLA-DPB1*04:02); assay: competition ELISA vs biotin-Oxy 271-287; remark: listed apart in the source
[31] = target: T9, HLA-DR13 (HLA-DRB1*13:01); assay: competition ELISA vs biotin-B1 21-36; remark: listed apart in the source

| Binder | relative affinity [6] | relative affinity [10] | relative affinity [11] | relative affinity (HLA-DR1 (HLA-DRB1*01:01) [12]) | relative affinity [13] | relative affinity (HLA-DR7 (HLA-DRB1*07:01) [14]) | relative affinity [15] | relative affinity [20] | relative affinity (HLA-DR3 (HLA-DRB1*03:01) [22]) | relative affinity [24] | relative affinity (HLA-DR1 (HLA-DRB1*01:01) [25]) | relative affinity [26] | relative affinity (HLA-DR7 (HLA-DRB1*07:01) [27]) | relative affinity [28] | relative affinity [30] | also measured |
| --- | --- | --- | --- | --- | --- | --- | --- | --- | --- | --- | --- | --- | --- | --- | --- | --- |
| H-KNVVMVNQGLTKHMT-NH2 (not fully specified) [CCNB1 385-399] | 0.02 | – | – | – | – | – | – | – | – | – | – | – | – | – | – | relative affinity (HLA-DR4 (HLA-DRB1*04:01) [1]): 986; relative affinity [2]: 52; relative affinity (HLA-DR1 (HLA-DRB1*01:01) [3]): 4500; relative affinity [4]: 766; relative affinity (HLA-DR3 (HLA-DRB1*03:01) [5]): 228; relative affinity [7]: 116; relative affinity [8]: 2; relative affinity [9]: 37 |
| VDVEQHTLAKYLMEL-NH2 [CCNB1 315-329] | – | 211 | 224 | 2450 | 632 | 6 | 7 | – | – | – | – | – | – | – | – | – |
| LHFLRRASKIGEVDV-NH2 [CCNB1 303-317] | – | 1 | 1330 | 495 | 1 | 849 | 17 | – | – | – | – | – | – | – | – | relative affinity (HLA-DR4 (HLA-DRB1*04:01) [16]): 1390; relative affinity (HLA-DR3 (HLA-DRB1*03:01) [17]): 3 |
| NTYTKHQIRQMEMKI-NH2 [CCNB1 275-289] | 85 | – | – | – | – | – | – | – | – | – | – | – | – | – | – | relative affinity (HLA-DR4 (HLA-DRB1*04:01) [1]): 456; relative affinity [2]: 50; relative affinity [4]: 4; relative affinity [18]: 80; relative affinity (HLA-DR7 (HLA-DRB1*07:01) [19]): 43; relative affinity [9]: 158 |
| PTLQHYLSYTEESLL-NH2 [CCNB1 363-377] | – | – | – | – | – | – | – | 1 | 1 | 24 | 28 | 45 | 1 | 11 | 50 | relative affinity [21]: 5; relative affinity (HLA-DR4 (HLA-DRB1*04:01) [23]): 76; relative affinity [29]: 22 |
| RAILIDWLVQVQMKF-NH2 [CCNB1 202-216] | – | – | – | – | – | – | – | 4 | 1 | 55 | 1220 | 400 | 9 | 2 | 14 | relative affinity [21]: 20; relative affinity (HLA-DR4 (HLA-DRB1*04:01) [23]): 59; relative affinity [29]: 47 |
| SEYVKDIYAYLRQLE-NH2 [CCNB1 168-182] | – | – | – | – | – | – | – | 12 | 97 | 3 | 22 | 3 | 346 | 30 | 127 | relative affinity [31]: 12 |
| HFPPSQIAAGAFCLA-NH2 [CCNB1 338-352] | 257 | – | – | – | – | – | – | – | – | – | – | – | – | – | – | relative affinity (HLA-DR1 (HLA-DRB1*01:01) [3]): 598; relative affinity (HLA-DR7 (HLA-DRB1*07:01) [19]): 1400; relative affinity [8]: 188 |
| AKINMAGAKRVPTAP-NH2 [CCNB1 17-31] | – | 21 | 11 | 5 | 2 | 3 | 120 | – | – | – | – | – | – | – | – | relative affinity (HLA-DR3 (HLA-DRB1*03:01) [17]): 833 |
